We go through one substance from patent US20220411525A1, “BCMA AS A TARGET FOR T CELL REDIRECTING ANTIBODIES IN B CELL LYMPHOMAS” (Janssen Pharmaceutica NV, priority 2021, published 2022).

The test has as its target B cell maturation antigen (BCMA) (human) (UniProt Q02223). In words: cell-based or functional assay.

Chain of B cell maturation antigen (BCMA) (human) (Q02223 whole entry): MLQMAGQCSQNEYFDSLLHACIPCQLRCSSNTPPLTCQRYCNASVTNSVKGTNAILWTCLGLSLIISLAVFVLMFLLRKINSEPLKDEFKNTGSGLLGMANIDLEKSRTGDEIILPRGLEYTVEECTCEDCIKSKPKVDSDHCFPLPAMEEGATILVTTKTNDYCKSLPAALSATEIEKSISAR

In the case of “BCMAxCD3 DuoBody Teclistamab (JNJ-64007957) (bispecific antibody)”, the average cell death of primary CLL cells, HD PBMCs 10:1 E:T, 96 h, 100 ng/mL, no γ-secretase inhibitor (first T cell donor) was 15.8%; the average cell death of primary CLL cells, HD PBMCs 10:1 E:T, 96 h, 100 ng/mL, no γ-secretase inhibitor (second T cell donor) amounted to 20%; the average cell death of primary CLL cells, HD PBMCs 10:1 E:T, 96 h, 100 ng/mL, with 100 nM γ-secretase inhibitor (first T cell donor) came to 25.8%; the average cell death of primary CLL cells, HD PBMCs 10:1 E:T, 96 h, 100 ng/mL, with 100 nM γ-secretase inhibitor (second T cell donor) came to 27.4%. Further, the average lysis of primary CLL cells, HD PBMCs 10:1 E:T, 48 h, 100 ng/mL, no γ-secretase inhibitor (first T cell donor) is 12.9%; the average lysis of primary CLL cells, HD PBMCs 10:1 E:T, 48 h, 100 ng/mL, no γ-secretase inhibitor (second T cell donor) was determined as 16.4%; the average lysis of primary CLL cells, HD PBMCs 10:1 E:T, 48 h, 100 ng/mL, with 100 nM γ-secretase inhibitor (first T cell donor) came to 14.9%; the average lysis of primary CLL cells, HD PBMCs 10:1 E:T, 48 h, 100 ng/mL, with 100 nM γ-secretase inhibitor (second T cell donor) was 21.6%. The lysis of primary CLL cells by HD CD8+ T cells, 5:1 E:T, 96 h, 100 ng/mL was less than 60% and the mean lysis of primary CLL cells by autologous CLL derived T cells, 5:1 E:T, 96 h, 100 ng/mL is 40%.
